Reference: patent publication US20230173042A1, “METHODS OF TREATMENT WITH ASPARAGINASE” (JAZZ PHARMACEUTICALS IRELAND LTD., priority 2017, published 2023)

Tests used:
HL-60 cell line = experiment: Combination (synergy) cell proliferation assay with pegcrisantaspase; type: cell-based
Protocol: Plate preparation. The stocks of the mixtures and single agents were diluted in DMSO or 0.9% sodium chloride to generate a 7-points dose-response series. After further 31.6 times dilution in 20 mM sterile Hepes buffer pH 7.4 (reference compounds) or medium (pegcrisantaspase), 5 μl of pegcrisantaspase solution, and 5 μl of reference compound was added to 40 μl pre-plated cells in duplicate in a 384-well assay plate. The final DMSO concentration during incubation was 0.4% in all wells.
Cell proliferation assay. A cell assay stock was thawed and diluted in appropriate medium and dispensed in a 384-well plate, depending on the cell line used, at a concentration of 800-3200 cells per well in […]: i.e., DB: 800 cells per well; RL: 1000 cells per well; MV-4-11: 1600 cells per well; KG-1, HL-60 and HT 3200 cells per well. For each used cell line the cell density was optimized previously. The margins of the plate were filled with phosphate-buffered saline. Plated cells were incubated in a humidified atmosphere of 5% CO2 at 37° C. After 24 hours, 5 μl of pegcrisantaspase solution, and 5 μl of reference compound was added, and plates were further incubated for another 72 hours. After 72 hours, plates were cooled in 30 minutes to room temperature and 25 μl of ATPlite 1Step™ (PerkinElmer) solution was added to each well, and subsequently shaken for 2 minutes. After 5 minutes of incubation in the dark at room temperature, the luminescence was recorded on an Envision multimode reader (PerkinElmer).
Controls: t=0 signal. On a parallel plate, 40 μl cells were dispensed in quadruplicate and incubated in a humidified atmosphere of 5% CO2 at 37° C. After 24 hours, plates were cooled to room temperature in 30 minutes. 5 μl DMSO-containing Hepes buffer, 5 μl 0.9% sodium chloride-containing medium and 25 μl ATPlite 1Step™ solution were added and subsequently mixed for 2 minutes. Luminescence was measured after 10 minute incubation (=luminescencet=0) in the dark.
(§1) Cell growth control. The cellular doubling times of all cell lines are calculated from the t=0 hours and t=end growth signals of the untreated cells. If the doubling time is out of specification (0.5-2.0 times deviating from historic average) the assay is invalidated.
Maximum signals. On each 384-well plate, the maximum luminescence was recorded after incubation for 72 hours without compound in the presence of 0.4% DMSO. All equivalent wells (usually 14) were averaged. This average is defined as: luminescenceuntreated,t=72h. Dose response curves. Accurate single agent IC50s are needed for combination analysis. For each single agent its dose-response signal was fitted by a 4-parameter logistics curve using XL-fit 5 (IDBS software):
luminescence=bottom+(top-bottom)/(1+10^(logIC50−log[cpd])−hill))
[cpd] is the compound concentration tested. hill is the Hill-coefficient. Bottom and top are the asymptotic minimum and maximum of the curve. Combination Index (CI) determination. The CI is one of the most widely used quantitative indications of synergy. The CI evaluates the concentrations needed to achieve a fixed-effect. A CI of below 1 indicates synergy.
CI is defined for a certain percentage cell viability (V), which is the signal related to a non-exposed control: V=100%×luminescencetreated,t=72h/luminescenceuntreated,t=72h. The concentrations of the two compounds cpd1 and cpd2 needed to reach a certain percentage cell viability V in combination are then compared to the concentrations needed as single agents:
IC50,cpd1 would signify the IC50 of cpd1 alone. The CI is labelled by %-effect, to follow conventions, so CI75 signifies the CI at 25% viability Curve shift analysis. This analysis provides a visual confirmation of synergy^1. The concentrations of the mixtures of compounds 1 and 2 (cpd1 and cpd2), and the single agents, were expressed in terms of IC50 equivalents (in ‘units’ of IC50):
The dose-response signal was fitted by a 4-parameter logistics curve using XL-fit 5 (IDBS software)

KG-1 = experiment: Oncolines cell proliferation assay (ATP luminescence); type: cell-based; conditions: KG-1, acute myelogenous leukemia (AML)
Protocol: (§2) Cell preparation. All cell lines have been licensed from the American Type Culture Collection (ATCC) Manassas, Va. (US). Master and Working Cell banks (MCB and WCB) were prepared by subculturing in ATCC-recommended media and freezing according to ATCC recommended protocols (www.atcc.org).
(§3) Compound preparation. Test compounds were prepared as stock solutions in DMSO or aqueous buffers as appropriate and serially diluted to obtain a dilution series.
(§4) Cell proliferation assay. Cell proliferation was assessed using a commercially available luminescence assay using ATP as the endpoint.
(§5) Controls. t=0 signal. On a parallel plate, 45 μl cells were dispensed and incubated in a humidified atmosphere of 5% CO2 at 37° C. After 24 hours 5 μl DMSO-containing Hepes buffer and 25 μl ATPlite 1Step™ solution were mixed, and luminescence measured after 10 minute incubation (=luminescencet=0).
(§6) Reference compound. The IC50 of the reference compound doxorubicin is measured on a separate plate. The IC50 is trended. If the IC50 is out of specification (0.32-3.16 times deviating from historic average) the assay is invalidated.
as §1
(§7) Maximum signals. For each cell line, the maximum luminescence was recorded after incubation until t=end without compound in the presence of 0.4% DMSO (=luminescenceuntreated,t=end).
(§8) IC50 were calculated by non-linear regression using IDBS XLfit. The percentage growth after incubation until t=end (%-growth) was calculated as follows: 100%×(luminescencet=end/luminescenceuntreated,t=end). This was fitted to the ^10log compound concentration (conc) by a 4-parameter logistics curve: %-growth=bottom+(top−bottom)/(1+10^(logIC50-conc)*hill)) where hill is the Hill-coefficient, and bottom and top the asymptotic minimum and maximum cell growth that the compound allows in that assay.
(§9) NCI60 parameters. The LD50, the concentration at which 50% of cells die, is the concentration where luminescencet=end=½×luminescencet=0h. […] This is concentration associated with the signal: ((luminescenceuntreated,t=end−luminescencet=0)/2)+luminescencet=0.
(§10) Curve fitting. […] The hill was fixed on −6 when the software calculated a lower value. […] Incidentally, when technical failures were likely, concentration points were knocked out.
(§11) The special volcano plot of FIG. 9 relates compound sensitivity (as measured by ^10logIC50) to the presence of cancer hotspot mutations. […] The hotspot mutations were derived from statistical analyses of the recurrence patterns of mutations and copy number alterations in patients through separate studies. Axes and statistical analyses are identical to the volcano plot of FIG. 8. The cutoff p-level for significance is 0.32. […] Effect20 For determination of the effect of the compound on the activity of other anti-cancer agents in SynergyScreen™ experiments, a low, fixed concentration is used, corresponding to the concentration at which cell growth is inhibited by 20%.

THP-1 = experiment: as above; type: cell-based; conditions: THP-1, acute monocytic leukemia
Protocol: as §2, §3, §4, §5, §6, §1, §7, §8, §9, §10, §11

MOLT-4 = experiment: as above; type: cell-based; conditions: MOLT-4, acute lymphoblastic leukemia (ALL)
Protocol: as §2, §3, §4, §5, §6, §1, §7, §8, §9, §10, §11

HT = experiment: as above; type: cell-based; conditions: diffuse mixed lymphoma, B lymphoblast
Protocol: as §2, §3, §4, §5, §6, §1, §7, §8, §9, §10, §11

DB = experiment: as above; type: cell-based; conditions: large cell lymphoma, B lymphoblast
Protocol: as §2, §3, §4, §5, §6, §1, §7, §8, §9, §10, §11

HL-60 = experiment: as above; type: cell-based; conditions: HL-60, acute promyelocytic leukemia
Protocol: as §2, §3, §4, §5, §6, §1, §7, §8, §9, §10, §11

RL = experiment: as above; type: cell-based; conditions: non-Hodgkin's lymphoma, B lymphoblast
Protocol: as §2, §3, §4, §5, §6, §1, §7, §8, §9, §10, §11

U-87-MG = experiment: as above; type: cell-based; conditions: glioblastoma, brain
Protocol: as §2, §3, §4, §5, §6, §1, §7, §8, §9, §10, §11

HT-1080 = experiment: as above; type: cell-based; conditions: HT-1080, fibrosarcoma
Protocol: as §2, §3, §4, §5, §6, §1, §7, §8, §9, §10, §11

MV-4-11 = experiment: as above; type: cell-based; conditions: MV-4-11, biphenotypic B myelomonocytic leukemia
Protocol: as §2, §3, §4, §5, §6, §1, §7, §8, §9, §10, §11

[1] = In vivo test of mPEG-r-crisantaspase with cytarabine and daunorubicin (tolerability, body weight); conditions: mice; PegC 5 & 50 IU/kg as single agent and with cytarabine 50 mg/kg and daunorubicin 1 mg/kg
[2] = in vivo; cited from earlier work
[3] = pegcrisantaspase with ABT-747, average Combination Index of the mixtures at ED50, HL-60

B1: Pegcrisantaspase: mPEG-r-crisantaspase conjugate: Erwinia chrysanthemi L-asparaginase conjugated to polyethylene glycol, prepared as set forth in U.S. Pat. No. 9,920,311 (conjugate, UniProt P06608 22-348, looked up)
L-asparaginase: ADKLPNIVILATGGTIAGSAATGTQTTGYKAGALGVDTLINAVPEVKKLANVKGEQFSNMASENMTGDVVLKLSQRVNELLARDDVDGVVITHGTDTVEESAYFLHLTVKSDKPVVFVAAMRPATAISADGPMNLLEAVRVAGDKQSRGRGVMVVLNDRIGSARYITKTNASTLDTFKANEEGYLGVIIGNRIYYQNRIDKLHTTRSVFDVRGLTSLPKVDILYGYQDDPEYLYDAAIQHGVKGIVYAGMGAGSVSVRGIAGMRKAMEKGVVVIRSTRTGNGIVPPDEELPGLVSDSLNPAHARILLMLALTRTSDPKVIQEYFHTY
modifications: mPEG conjugate
With B1 the Curve shift (HL-60 cell line; pegcrisantaspase with ABT-747, HL-60, leftward shift indicates synergy) was “yes”, the “Average CI value 1:1, 1:2 and 2:1” value (HL-60 cell line; [3]) was 0.26 and the “Average CI value 1:1, 1:5 and 5:1” value (HL-60 cell line; [3]) was 0.29. The “Average CI value 1:1, 1:10 and 10:1” value (HL-60 cell line; [3]) was 0.33, the “IC50 (IU/mL)” value (HL-60 cell line; single agent, HL-60, 72 hours) was 0.070 IU/mL and the maximal effect (HL-60 cell line; single agents, dose-response curves of FIG. 3, HL-60) was 88%. The “Effect20 (concentration at which cell growth is inhibited by 20%)” value (KG-1) was 0.00018 IU/mL, the “Effect20 (concentration at which cell growth is inhibited by 20%)” value (THP-1) was 0.012 IU/mL and the “Effect20 (concentration at which cell growth is inhibited by 20%)” value (MOLT-4) was 0.00019 IU/mL. For the same molecule, the “Effect20 (concentration at which cell growth is inhibited by 20%)” value (HT) was 0.033 IU/mL, the “Effect20 (concentration at which cell growth is inhibited by 20%)” value (DB) was 0.059 IU/mL and the “Effect20 (concentration at which cell growth is inhibited by 20%)” value (HL-60) was 0.00028 IU/mL. For the same molecule, the “Effect20 (concentration at which cell growth is inhibited by 20%)” value (RL) was 0.037 IU/mL, the “Effect20 (concentration at which cell growth is inhibited by 20%)” value (U-87-MG) was 0.057 IU/mL and the “Effect20 (concentration at which cell growth is inhibited by 20%)” value (HT-1080) was 0.013 IU/mL. The “Effect20 (concentration at which cell growth is inhibited by 20%)” value (MV-4-11) was 0.0088 IU/mL and the tolerability [1] was “well tolerated”.

B2: Erwinia L-asparaginase: L-asparaginase protein from Erwinia chrysanthemi, named crisantaspase, marketed as Erwinase (protein, UniProt P06608 22-348, looked up)
L-asparaginase: ADKLPNIVILATGGTIAGSAATGTQTTGYKAGALGVDTLINAVPEVKKLANVKGEQFSNMASENMTGDVVLKLSQRVNELLARDDVDGVVITHGTDTVEESAYFLHLTVKSDKPVVFVAAMRPATAISADGPMNLLEAVRVAGDKQSRGRGVMVVLNDRIGSARYITKTNASTLDTFKANEEGYLGVIIGNRIYYQNRIDKLHTTRSVFDVRGLTSLPKVDILYGYQDDPEYLYDAAIQHGVKGIVYAGMGAGSVSVRGIAGMRKAMEKGVVVIRSTRTGNGIVPPDEELPGLVSDSLNPAHARILLMLALTRTSDPKVIQEYFHTY
For B2, the patients antibody-positive [2] is given as 30-50%.
